Reference: patent US20220411495A1, “POSITIVE ALLOSTERIC MODULATORS OF THE CALCIUM-SENSING RECEPTOR” (VIB VZW, priority 2019, published 2022)
Substitutions are numbered along the chain they refer to.

Target: T1, rat CaSR (rCaSR) (Rattus norvegicus, UniProt P48442)
T1 construct: mGlu5 signal peptide (N); expressed in transfected cells; host or cells: HEK293A, transient transfection
T1 sequence (P48442 20-1079): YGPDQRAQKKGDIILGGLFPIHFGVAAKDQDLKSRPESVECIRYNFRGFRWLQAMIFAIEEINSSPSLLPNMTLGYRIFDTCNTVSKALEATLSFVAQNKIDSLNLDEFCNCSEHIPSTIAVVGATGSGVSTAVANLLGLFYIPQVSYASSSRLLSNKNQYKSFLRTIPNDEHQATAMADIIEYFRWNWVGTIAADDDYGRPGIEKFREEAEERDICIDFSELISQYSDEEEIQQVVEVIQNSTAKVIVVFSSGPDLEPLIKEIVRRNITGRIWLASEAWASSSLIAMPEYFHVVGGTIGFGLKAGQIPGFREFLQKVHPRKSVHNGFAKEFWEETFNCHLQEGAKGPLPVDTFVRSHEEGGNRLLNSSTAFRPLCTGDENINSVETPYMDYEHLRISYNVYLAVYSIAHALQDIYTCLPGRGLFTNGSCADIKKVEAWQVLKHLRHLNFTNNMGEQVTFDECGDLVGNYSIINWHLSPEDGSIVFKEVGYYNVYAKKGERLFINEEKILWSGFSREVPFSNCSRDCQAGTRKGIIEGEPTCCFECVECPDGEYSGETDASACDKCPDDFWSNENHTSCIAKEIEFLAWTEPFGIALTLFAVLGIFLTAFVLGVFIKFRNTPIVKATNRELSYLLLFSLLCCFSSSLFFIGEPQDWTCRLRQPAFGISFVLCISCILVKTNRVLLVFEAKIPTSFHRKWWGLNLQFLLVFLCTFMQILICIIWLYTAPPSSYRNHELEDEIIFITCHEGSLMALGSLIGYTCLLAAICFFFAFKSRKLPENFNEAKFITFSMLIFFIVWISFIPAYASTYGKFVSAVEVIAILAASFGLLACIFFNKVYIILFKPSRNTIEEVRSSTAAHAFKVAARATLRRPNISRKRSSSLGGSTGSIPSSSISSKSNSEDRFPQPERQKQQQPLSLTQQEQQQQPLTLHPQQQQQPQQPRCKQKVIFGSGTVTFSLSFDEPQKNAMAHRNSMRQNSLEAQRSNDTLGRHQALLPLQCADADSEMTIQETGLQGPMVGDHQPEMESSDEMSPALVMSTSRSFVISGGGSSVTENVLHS
Assay: IP1 accumulation assay, HEK293A cells transiently transfected with HA-rCaSR WT
Format: cell-based
Conditions: IP1 accumulation at EC20 Ca2+
Text: The rat and human CaSR orthologs have an overall sequence identity of 93.6% and an ECD sequence identity of 95.7% (SEQ ID NO:1 aligned with SEQ ID NO:2). Thus, differences in CaSR nanobody activity are unlikely to be observed. […] Besides CaSR Nb36, similar results were obtained among the nanobodies that originate from the same family (FIGS. 7E and 7F). For Nb36, the increase in maximum response relative to Nb4 and Nb11 previously observed with human CaSR was absent (FIGS. 7C and 7F). The binding site of these nanobodies still remains to be found. The difference in CaSR Nb36 maximum response and the high interspecies sequence identity could bring us one step closer to finding the binding site for CaSR Nb4, Nb11 and Nb36.
All cell lines utilized in this study were grown at 37° C. and 5% CO2. The HEK293A (RRID: CVCL_6910) and stable Flp-In HEK293 cells were cultured in Dulbecco's Modified Eagle Medium (DMEM, #31966021) supplemented with 10% dialyzed Fetal Bovine Serum (dFBS) and 1% 10,000 units/mL penicillin and 10,000 μg/mL streptomycin mixture (pen/strep). The stable Flp-In CHO cells were cultured in F-12K medium (#21127022) supplemented with 10% dFBS and 1% pen/strep. Additionally, the stable Flp-In HEK293 and Flp-In CHO cell lines were cultured in the presence of respectively 200 and 500 μg/mL hygromycin B. For pharmacological characterization, Flp-In HEK293 HA-hCaSR WT cells were seeded in poly-D-lysine-coated clear 96 well tissue culture plates (Corning, Corning, N.Y., USA) at a density of 50,000 cells/well 18 h prior to assay. Experiments with HA-rCaSR WT and HA-hCaSR S170A required transient transfection of HEK293A cells 24 h prior to assay. DNA construct and Lipofectamine 2000 were diluted in Opti-MEM and mixed together after 5 minutes incubation at room temperature. For HA-rCaSR WT, 30 ng/well rCaSR DNA diluted in 25 μL/well Opti-MEM was mixed with 0.25 μL/well Lipofectamine 2000 in 25 μL/well Opti-MEM. For HA-hCaSR S170A, 40 ng/well […] DNA diluted in 25 μL/well Opti-MEM was mixed with 0.25 μL/well Lipofectamine 2000 in 25 μL/well Opti-MEM. The DNA:Lipofectamine 2000 mixtures were incubated 20 minutes at room temperature after which 50 μL/well was added to a poly-D-lysine-coated clear 96 well tissue culture plate. Next, 100 μL/well of a 400,000 cells/mL HEK293A cell solution prepared in culture media was added and the plate was placed at 37° C. and 5% CO2 (final cell density 40,000 cells/well).
Inositol monophosphate (IP1) accumulation was measured using the commercially available HTRF® IP1 accumulation kit (Cisbio Bioassays, Codolet, France) and an EnVision multimode plate reader (PerkinElmer, Waltham, Mass., USA). Unless stated otherwise, the cells were washed once with 100 μL/well assay buffer and stimulated for 30 minutes at 37° C. with 50 μL/well ligand(s) diluted in assay buffer supplemented with 20 mM LiCl. Following stimulation, the cells were washed once with 100 μL/well and lysed for 30 minutes at room temperature with 30 μL/well lysis buffer provided with the kit. The lysed cells were diluted 1:2 with assay buffer after which 10 μL/well was pipetted to a white 384-well OptiPlate (PerkinElmer, Waltham, Mass., USA). Next, 10 μL of a detection solution consisting of 2.5% IP1-d2 conjugate and 2.5% anti-IP1 antibody diluted in assay buffer was added to each well. Fluorophore emissions were measured after the plate was stored in the dark for 1 h. The 615/665 nm emission ratios measured upon excitation at 340 nm were converted to IP1 concentrations with an IP1 standard curve according to the manufacturer's instructions.

[1] = three independent experiments in triplicate

Molecule: COc1cccc([C@@H](C)NCCCc2ccccc2Cl)c1 [NPS R-568, reference compound]
- Max. response (fold over basal ± S.E.M.), rat ortholog: 3.43 ± 0.76 fold over basal
- EC50 (three independent experiments in triplicate, read-out: Potency (pEC50 ± S.E.M.), rat ortholog (converted)): 257 nM

B1: Nb36: llama-derived CaSR-specific nanobody acting as PAM, SEQ ID NO:7 (protein)
VHH: QVQLVESGGGLVQAGESLRLSCAASGRTFSSYRMGWFRQGPGKEREFVAAITATGVRTYYADSVKGRFTISRDNAKNTVYLQMNSLQPDDTAVYLCAARRKAIFSVQQALTITDYDDWGQGTQVTVSS
modifications: CaSR Nb36
- Max. response (fold over basal ± S.E.M.), rat ortholog: 3.10 ± 0.12 fold over basal
- Potency (pEC50 ± S.E.M.), rat ortholog [1]: 6.78 ± 0.03

B2: Nb5: llama-derived CaSR-specific nanobody, weakest PAM, SEQ ID NO:8 (protein)
VHH: QVQLVESGGRLVQDGGSLRLSCAASGLTFSDYSMGWFRQVPGKEREFVAVIRRSNDSTYYADFVKGRFTISRDNAKNTVYLQMNSLQPEDTAVYSCAADRGGVGLTSAQTYAYWGQGTQVTVSS
modifications: CaSR Nb5
- Max. response (fold over basal ± S.E.M.), rat ortholog: 1.28 ± 0.12 fold over basal

B3: Nb10: llama-derived CaSR-specific nanobody acting as PAM, SEQ ID NO:3 (protein)
VHH: QVQLVESGGGLVQPGDSLRVSCAASGGSFRSYAMAWFRQAPGKEREFVAAMSGTYGSTIYSDSMKGRFTISRDNAKKMVYLRMNSLRPEDTAVYYCAGYYSGAYYGTPKTDYTEYDSWGQGTQVTVSS
modifications: CaSR Nb10
- Max. response (fold over basal ± S.E.M.), rat ortholog: 2.89 ± 0.13 fold over basal
- Potency (pEC50 ± S.E.M.), rat ortholog [1]: 6.29 ± 0.02

B4: Nb37: llama-derived CaSR-specific nanobody acting as PAM, SEQ ID NO:4 (protein)
VHH: B3 VHH with Q39R, S61A, P88A
modifications: CaSR Nb37
- Max. response (fold over basal ± S.E.M.), rat ortholog: 3.07 ± 0.39 fold over basal
- Potency (pEC50 ± S.E.M.), rat ortholog [1]: 6.00 ± 0.28

B5: Nb4: llama-derived CaSR-specific nanobody acting as PAM, SEQ ID NO:5 (protein)
VHH: QVQLVESGGGLVQAGGSLRLSCAASGRTFSTYRMGWFRQGLGKEREFVAAITANGVRTFYTDSVKGRFTISRDNAKNTLYLQMNSLQPDDTAVYLCAARRKGIFTVQQAQDITDWDYWGQGTQVTVSS
modifications: CaSR Nb4
- Max. response (fold over basal ± S.E.M.), rat ortholog: 3.03 ± 0.63 fold over basal
- Potency (pEC50 ± S.E.M.), rat ortholog [1]: 7.09 ± 0.09

B6: Nb11: llama-derived CaSR-specific nanobody acting as PAM, SEQ ID NO:6 (protein)
VHH: QVQLVESGGGLVQAGGSLRLSCAASGRTFSTYRMGWFRQGPGKEREFVAAITATGVKTYYTDSVKGRFTISRDNAKNTVYLQMNSVQPEDTAVYSCAARIKAIFTAQQAATITDYDYWGQGTQVTVSS
modifications: CaSR Nb11
- Max. response (fold over basal ± S.E.M.), rat ortholog: 2.90 ± 0.23 fold over basal
- Potency (pEC50 ± S.E.M.), rat ortholog [1]: 6.24 ± 0.11

B7: Nb15: llama-derived CaSR-specific nanobody acting as PAM, SEQ ID NO:10 (protein)
VHH: QVQLVESGGGLVQAGGSLRLSCAASGRTFNNYHMAWFRQAPGKEREFAAAISRRAGTTYYADSVKGRFTISRDNAKNTVYLQMNSLKPEDTAVYYCAADPDTYGVSYLARKYDYWGQGTQVTVSS
modifications: CaSR Nb15
- Max. response (fold over basal ± S.E.M.), rat ortholog: 2.88 ± 0.13 fold over basal
- Potency (pEC50 ± S.E.M.), rat ortholog [1]: 6.31 ± 0.07

B8: Nb2: llama-derived CaSR-specific nanobody acting as PAM, SEQ ID NO:9 (protein)
VHH: QVQLVESGGGLVQAGSSLRLSCAASGRTFSNYRMAWFRQAPGKEREFVAVISRGGGGADYADSVKGRFTISRDNVKNTVSLQMNSLKPEDTAVYFCAARISGFSYYTSVDRYDYWGQGTQVTVSS
modifications: CaSR Nb2
- Max. response (fold over basal ± S.E.M.), rat ortholog: 3.01 ± 0.51 fold over basal
- Potency (pEC50 ± S.E.M.), rat ortholog [1]: 6.46 ± 0.07
